Assay results published in article PMC6073470 (International Journal of Molecular Sciences, 2018).
Like-named read-outs stand apart in the source and are kept apart here.

T1: human small heat shock protein HspB6, wild type (human), O14558
T1 chain: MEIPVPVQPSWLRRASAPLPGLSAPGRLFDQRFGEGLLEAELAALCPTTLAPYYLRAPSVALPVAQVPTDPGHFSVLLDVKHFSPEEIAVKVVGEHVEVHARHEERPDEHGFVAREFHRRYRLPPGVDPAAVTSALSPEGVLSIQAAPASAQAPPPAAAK

T2: human small heat shock protein HspB8, wild type (human), Q9UJY1
T2 chain: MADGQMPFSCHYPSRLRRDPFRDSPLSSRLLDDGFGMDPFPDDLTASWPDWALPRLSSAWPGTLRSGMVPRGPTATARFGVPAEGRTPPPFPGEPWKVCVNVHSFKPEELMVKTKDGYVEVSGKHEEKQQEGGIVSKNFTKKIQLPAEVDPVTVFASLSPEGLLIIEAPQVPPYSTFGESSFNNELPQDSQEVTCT


Legend:
[1] = biological target: T1, human small heat shock protein HspB6, …; assay: SEC; Superdex 200 HR 10/30; 20 mM Tris/acetate pH 7.6, 150 mM NaCl, 0.1 mM EDTA, 0.1 mM PMSF, 15 mM beta-mercaptoethanol; 10-120 ug protein in 100 uL loaded; apparent mass from calibration, estimated number of subunits; details: remark: other sources report otherwise
[2] = biological target: the molecule itself; assay: as above
[3] = biological target: T2, human small heat shock protein HspB8, …; assay: SEC-SAXS; online SEC-SAXS, SWING beamline; Shodex KW404-4F; 20 mM HEPES, 150 mM NaCl, pH 7.4, 2.5 mM DTT; 5 mg/mL (230 uM) sample applied; mass from the volume of correlation; details: remark: other sources report otherwise
[4] = biological target: T2, human small heat shock protein HspB8, …; assay: SEC; Superdex 200 HR 10/30; 20 mM Tris/acetate pH 7.6, 150 mM NaCl, 0.1 mM EDTA, 0.1 mM PMSF, 15 mM beta-mercaptoethanol; 10-120 ug protein in 100 uL loaded; apparent mass from calibration, estimated number of subunits; details: remark: other sources report otherwise
[5] = biological target: the molecule itself; assay: as above; remark: listed apart in the source

| Binder | stoichiometry N [2] | further results |
| --- | --- | --- |
| human small heat shock protein HspB6, wild type, O14558 1-160 (natural protein) MEIPVPVQPSWLRRASAPLPGLSAPGRLFDQRFGEGLLEAELAALCPTTLAPYYLRAPSVALPVAQVPTDPGHFSVLLDVKHFSPEEIAVKVVGEHVEVHARHEERPDEHGFVAREFHRRYRLPPGVDPAAVTSALSPEGVLSIQAAPASAQAPPPAAAK |  | stoichiometry N [1]: 3 monomers |
| R27A mutant of human HspB6 (natural protein, UniProt O14558 1-160, looked up, HspB6, human; UniProt O14558; Arg27 of the RLFDQxFG motif replaced by Ala; Expressed from pET23b; also called R27A HspB6; R27A mutant of HspB6) MEIPVPVQPSWLRRASAPLPGLSAPGALFDQRFGEGLLEAELAALCPTTLAPYYLRAPSVALPVAQVPTDPGHFSVLLDVKHFSPEEIAVKVVGEHVEVHARHEERPDEHGFVAREFHRRYRLPPGVDPAAVTSALSPEGVLSIQAAPASAQAPPPAAAK | ~3 monomers |  |
| human small heat shock protein HspB8, wild type, Q9UJY1 1-196 (natural protein) MADGQMPFSCHYPSRLRRDPFRDSPLSSRLLDDGFGMDPFPDDLTASWPDWALPRLSSAWPGTLRSGMVPRGPTATARFGVPAEGRTPPPFPGEPWKVCVNVHSFKPEELMVKTKDGYVEVSGKHEEKQQEGGIVSKNFTKKIQLPAEVDPVTVFASLSPEGLLIIEAPQVPPYSTFGESSFNNELPQDSQEVTCT |  | stoichiometry N [3]: 2 monomers; stoichiometry N [4]: 2 monomers |
| R29A mutant of human HspB8 (natural protein, UniProt Q9UJY1 1-196, looked up, HspB8, human; UniProt Q9UJY1; Arg29 of the RLFDQxFG motif replaced by Ala; Expressed from pET23b; also called R29A HspB8; source: E. coli BL21(DE3)pLysS, purified (ammonium sulfate fractionation, HiTrap Phenyl Sepharose, Superdex-200 SEC)) MADGQMPFSCHYPSRLRRDPFRDSPLSSALLDDGFGMDPFPDDLTASWPDWALPRLSSAWPGTLRSGMVPRGPTATARFGVPAEGRTPPPFPGEPWKVCVNVHSFKPEELMVKTKDGYVEVSGKHEEKQQEGGIVSKNFTKKIQLPAEVDPVTVFASLSPEGLLIIEAPQVPPYSTFGESSFNNELPQDSQEVTCT | ~3 monomers | stoichiometry N [5]: 4 monomers |
| human small heat shock protein HspB5 (alphaB-crystallin), wild type (natural protein, UniProt P02511 1-175, looked up, HspB5 (alphaB-crystallin), human; UniProt P02511; Expressed from pET23b; The printed monomeric mass (20.2 kDa) fits the whole protein; also called αB-crystallin; wild type HspB5; source: E. coli BL21(DE3)pLysS, purified (ammonium sulfate fractionation, HiTrap Q HP, Superdex-200 SEC)) MDIAIHHPWIRRPFFPFHSPSRLFDQFFGEHLLESDLFPTSTSLSPFYLRPPSFLRAPSWFDTGLSEMRLEKDRFSVNLDVKHFSPEELKVKVLGDVIEVHGKHEERQDEHGFISREFHRKYRIPADVDPLTITSSLSSDGVLTVNGPRKQVSGPERTIPITREEKPAVTAAPKK | ~27 monomers |  |
| R22A mutant of human HspB5 (natural protein, UniProt P02511 1-175, looked up, HspB5 (alphaB-crystallin), human; UniProt P02511; Arg22 of the RLFDQxFG motif replaced by Ala; Expressed from pET23b; also called R22A HspB5; source: E. coli BL21(DE3)pLysS, purified (ammonium sulfate fractionation, HiTrap Q HP, Superdex-200 SEC)) MDIAIHHPWIRRPFFPFHSPSALFDQFFGEHLLESDLFPTSTSLSPFYLRPPSFLRAPSWFDTGLSEMRLEKDRFSVNLDVKHFSPEELKVKVLGDVIEVHGKHEERQDEHGFISREFHRKYRIPADVDPLTITSSLSSDGVLTVNGPRKQVSGPERTIPITREEKPAVTAAPKK | ~23 monomers |  |
| R21A mutant of human HspB4 (natural protein, UniProt P02489 1-173, looked up) MDVTIQHPWFKRTLGPFYPSALFDQFFGEGLFEYDLLPFLSSTISPYYRQSLFRTVLDSGISEVRSDRDKFVIFLDVKHFSPEDLTVKVQDDFVEIHGKHNERQDDHGYISREFHRRYRLPSNVDQSALSCSLSADGMLTFCGPKIQTGLDATHAERAIPVSREEKPTSAPSS | ~30 monomers |  |
